As a reminder, the Kd is the equilibrium constant for the complex coming apart. A higher Kd goes with weaker binding. By IC50 is commonly meant the point on the concentration scale where inhibition reaches its midpoint.

Substitutions are numbered along the chain they refer to. Bounds are passed on as bounds.

Consider six molecules from patent US20180371107A1 (published 2018).

The target in test [1] is T1, mouse zymogen NSP4 (mZ-NSP4) (mouse), Q14B24.
T1 chain: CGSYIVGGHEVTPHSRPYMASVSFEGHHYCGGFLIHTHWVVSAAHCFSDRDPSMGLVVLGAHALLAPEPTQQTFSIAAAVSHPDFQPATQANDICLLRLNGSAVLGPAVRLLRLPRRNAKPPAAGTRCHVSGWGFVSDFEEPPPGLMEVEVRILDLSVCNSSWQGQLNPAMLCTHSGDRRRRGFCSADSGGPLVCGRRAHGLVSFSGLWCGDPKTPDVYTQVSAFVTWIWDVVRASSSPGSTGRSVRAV
As to the kind of experiment: BLI; no affinity. Conditions: chains VH:VL; remark: other sources report otherwise. (In general: In BLI a coated tip is dipped into the sample, and binding shifts an interference pattern.)

Test [2] concerns the target T2, mouse NSP4 (mNSP4), form not stated in Example 6 (mouse, UniProt Q14B24 40-284, limits assumed).
T2 construct: also called recombinant mouse NSP4; purified mouse NSP4
T2 sequence (looked up): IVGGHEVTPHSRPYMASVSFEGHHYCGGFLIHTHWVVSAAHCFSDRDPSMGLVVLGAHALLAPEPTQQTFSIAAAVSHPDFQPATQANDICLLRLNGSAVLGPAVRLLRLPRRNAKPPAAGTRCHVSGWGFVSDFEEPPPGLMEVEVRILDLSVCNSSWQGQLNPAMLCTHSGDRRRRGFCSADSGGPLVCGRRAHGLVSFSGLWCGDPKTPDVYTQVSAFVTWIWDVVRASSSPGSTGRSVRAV
As to the kind of experiment: phage competition binding assay (phage IC50), soluble mNSP4 competitor.

Test [3] deals with T3, mouse active NSP4 (mA-NSP4) (mouse, UniProt Q14B24 40-284).
T3 construct: mature; Made from mZ by enteropeptidase cleavage; also called mature form of mouse NSP4
T3 sequence (looked up): T2 sequence (looked up)
Nature of the test: competition phage ELISA (phage IC50): phage clone preincubated with soluble mA-NSP4, then on NSP4-coated wells. For orientation: ELISA stands for enzyme-linked immunosorbent assay.
Method: Phage at sub-saturating concentrations were first incubated with increasing concentrations of target NSP4 antigen (either hZ, hA, mZ, or mA) for 1 to 2 hour(s), and then transferred to wells coated with the same NSP4 antigen to capture the unbound phage.
Briefly, 2 ug/ml of NSP4 (hZ, hA, mZ, or mA variants) was coated on wells overnight at 4° C. in PBS supplemented with 0.5% BSA. Each individual phage clone (at 0.01 OD/ml) was purified and incubated with increasing concentrations of soluble NSP4 protein for 2 h at room temperature before being placed into wells coated with immobilized NSP4 protein for 15 min at room temperature. The wells were then washed with PBS supplemented with 0.05% Tween-20 for 10 times and developed using anti-M13 phage antibody conjugated with HRP (New England Biolabs). […] The soluble phage:antigen complex, with higher likelihood to be high-affinity phage clones, would thus be removed through successive washing steps, resulting in lower A450 signal at any given concentration of soluble antigen. Consequently, higher affinity phage clones would have a lower phage IC50 value, with a concomitant leftward-shift in the binding curves, compared to lower affinity phage clones.

Test [4] has as its target T4, mouse zymogen NSP4 (mZ-NSP4) (mouse, UniProt Q14B24 36-284).
T4 construct: Expressed in CHO cells; also called precursor form of mouse NSP4; not shown: N-terminal FLAG tag removable by enteropeptidase (cleavage after Asp-Asp-Asp-Asp-Lys)
T4 sequence (looked up): T1 chain
As to the kind of experiment: competition phage ELISA (phage IC50): phage clone preincubated with soluble mZ-NSP4, then on NSP4-coated wells.

The target in test [5] is T5, human NSP4 (hNSP4), form not stated in Example 6 (human, UniProt Q6UWY2 34-283, limits assumed).
T5 sequence (looked up): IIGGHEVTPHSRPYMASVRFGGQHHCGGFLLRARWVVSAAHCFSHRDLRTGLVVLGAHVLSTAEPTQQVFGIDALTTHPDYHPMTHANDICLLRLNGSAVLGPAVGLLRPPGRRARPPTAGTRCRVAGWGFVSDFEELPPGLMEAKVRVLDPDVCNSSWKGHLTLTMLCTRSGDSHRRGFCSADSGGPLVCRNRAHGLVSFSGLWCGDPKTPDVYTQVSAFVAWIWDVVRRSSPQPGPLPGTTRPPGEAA
As to the kind of experiment: phage competition binding assay (phage IC50), soluble hNSP4 competitor.

Test [6] has as its target T2, mouse NSP4 (mNSP4), form not stated in …. As to the kind of experiment: ratio of phage IC50 against the parental clone 35.WT.

B1: anti-NSP4 antibody 5-1 (antibody, V domains shown)
VH: EVQLVESGGGLVQPGGSLRLSCAASGFTFSGSGIHWVRQAPGKGLEWVAWISPTGGNTYYADSVKGRFTISADTSKNTAYLQMNSLRAEDTAVYYCAKSLFHNVAFDYWGQGTLVTVSS
VL: DIQMTQSPSSLSASVGDRVTITCRASQDVSTAVAWYQQKPGKAPKLLIYSASFLYSGVPSRFSGSGSGTDFTLTISSLQPEDFATYYCQQSYTTPPTFGQGTKVEIKR
notes: also called Ab 5-1; Ab5-1
B1 gave a Kd in test [1] of over 1000 nM. For the same molecule, the values for the IC50 in test [2] and in test [3] were 18.7 nM and 9.93 nM, respectively.

B2: anti-NSP4 antibody 3-2 (antibody, V domains shown)
VH: EVQLVESGGGLVQPGGSLRLSCAASGFTFSDYSISWVRQAPGKGLEWVGEINPAGGATYYADSVKGRFTISADTSKNTAYLQMNSLRAEDTAVYYCARGDFPFWSDAYYVMDYWGQGTLVTVSS
VL: B1 VL
notes: also called Ab 3-2
B2: in test [4], the IC50 worked out at 0.15 nM.

B3: anti-NSP4 antibody 5-3 (antibody, human IgG1, V domains shown)
VH: EVQLVESGGGLVQPGGSLRLSCAASGFTFSGNDISWVRQAPGKGLEWVAGISPYGGSTYYADSVKGRFTISADTSKNTAYLQMNSLRAEDTAVYYCARRVSFYSRHAGMDYWGQGTLVTVSS
VL: B1 VL
Consider B3, for which, in test [1], the Kd was over 1000 nM. For the same molecule, the IC50 in test [3] was found to be 319 nM.

B4: anti-NSP4 antibody 5-4 (antibody, human IgG1, V domains shown)
VH: EVQLVESGGGLVQPGGSLRLSCAASGFTFTSYAISWVRQAPGKGLEWVAGISPSNGYTNYADSVKGRFTISADTSKNTAYLQMNSLRAEDTAVYYCARAGRWTHSDIDYWGQGTLVTVSS
VL: B1 VL
notes: also called Ab 5-4
In the case of B4, the Kd in test [1] is over 1000 nM. Besides, in test [3], the IC50 was 60.5 nM.

B5: anti-NSP4 antibody 3-5 (antibody, V domains shown)
VH: EVQLVESGGGLVQPGGSLRLSCAASGFTFSDNDISWVRQAPGKGLEWVGSISPDNGDTNYADSVKGRFTISADTSKNTAYLQMNSLRAEDTAVYYCARDDVPAVFTSAMDYWGQGTLVTVSS
VL: B1 VL
notes: also called Ab 3-5; Ab35
Regarding B5, the IC50 in test [5] came to 32.8 nM; in test [4] it was 0.18 nM; in test [2], 0.131 nM.

B6: affinity matured anti-NSP4 antibody clone 35.62 (Fab, V domains shown)
VH: B5 VH
VL: B1 VL with Y92A, T93G, T94F, P96L
As to B6, the IC50 in test [5] was found to be 25.7 nM; in test [2], 0.206 nM. Moreover, the “Affinity improvement to mNSP4” value in test [6] amounted to 0.6 fold.
